Results published in patent US20130101617A1.

What was measured:
[1] = target: CD4 on CF2.CD4.CCR5 cells (Homo sapiens (Human)) (UniProt P01730)
[2] = target: CCR5 on CF2.CD4.CCR5 cells (Homo sapiens (Human)) (UniProt P51681)

**Q.** Which results are given for JR-FL SOS gp120/gp41 trimer?
**A.** infection of CF2.CD4.CCR5 target cells [1]: 100 % of mock; infection of CF2.CD4.CCR5 target cells [2]: 100 % of mock
